Test results reported in PMC11339918, “Extracellular Domain of IL-10 Receptor Chain-2 (IL-10R2) and Its Arginine-Containing Peptides Are Susceptible Substrates for Human Prostate Kallikrein-2 (KLK2)” (Biochemistry, 2024).
Entries after “also recorded” stand apart in the source; their conditions may differ. Non-standard residues stand in square brackets, D forms with d. No end group written: not given here. *: point of attachment. EDDnp = O=[N+]([O-])c1ccc(NCCN*)c([N+](=O)[O-])c1; 2Abz = Nc1ccccc1C(=O)O

Target: T1, Recombinant KLK2 (Homo sapiens, UniProt P20151)
T1 construct: made in house; host or cells: baculovirus-insect cell line system
Test: Hydrolysis of FRET peptides by recombinant KLK2 (kinetic parameters)
Format: biochemical
Settings: for hydrolysis by KLK2 (in words): FRET peptides derived from the IL-10R2 ectodomain
From the text: Obtained from a baculovirus-insect cell line system, purified, and activated as previously reported,[14] MUGB (4-methylumbelliferyl p-guanidino benzoate hydrochloride) was used for the spectrofluorimetric determination of molar concentrations of active KLK2.[15] KLK3 was obtained and assayed as previously reported.[3]
All of the FRET peptides were obtained by solid-phase peptide synthesis. The purity of FRET peptides to 95% or higher was obtained by semipreparative HPLC on a C18 reversed-phase column and used as protease substrates, as previously reported.[5] Details about the purification and quality of the FRET peptides are provided in the Supporting Information. The enzymatic kinetic measurements were all performed with FRET peptides as previously described.[5]
Five series of FRET peptides derived from Abz-KLRSSK-Q-EDDnp were assayed with KLK2 in 20 mM Tris–HCl, pH 8.0, and 1 M sodium citrate. […] The specificity of subsites S3, S2, S1’, and S2’ was explored by the FRET peptide series Abz-XLRSSKQ-EDDnp (for S3), Abz-KXRSSKQ-EDDnp (for S2), Abz-KLRXSKQ-EDDnp (for S1’), and Abz-KLRSXKQ-EDDnp (for S2’). All of them were hydrolyzed only at R–S or R–X peptide bonds, and the kinetic parameters for their hydrolysis by KLK2 are listed in Table 1.

[1] = pH 8.0, 20 mM Tris–HCl, 1 M sodium citrate, 37 °C, KLK2 1.6 nM, three enzymatic reactions, standard errors 5% or less
[2] = Table 3, FRET peptides derived from the IL-10R2 ectodomain

T1 sequence (P20151 25-261): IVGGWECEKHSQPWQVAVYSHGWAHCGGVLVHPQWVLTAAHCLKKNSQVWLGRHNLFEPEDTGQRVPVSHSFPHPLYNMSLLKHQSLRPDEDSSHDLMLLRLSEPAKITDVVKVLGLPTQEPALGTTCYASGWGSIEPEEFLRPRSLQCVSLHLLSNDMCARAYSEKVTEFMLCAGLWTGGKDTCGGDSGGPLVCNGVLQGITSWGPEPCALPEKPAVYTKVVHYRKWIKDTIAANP

Abz-KLRXSKQ-EDDnp, X = G: FRET peptide, S1’ series, X = G ([2Abz]KLRGSKQ-EDDnp)
Km [1]: 7.3 µM | kcat [1]: 19.9 s^–1

Abz-XLRSSKQ-EDDnp, X = S: FRET peptide, S3 series, X = S (Abz-SLRSSKQ-EDDnp)
Km [1]: 3 µM | kcat [1]: 29.8 s^–1 | kcat/Km [1]: 9933 s^–1 mM^–1

Abz-XLRSSKQ-EDDnp, X = V: FRET peptide, S3 series, X = V [Abz-XLRSSKQ-EDDnp, X = V] (Abz-VLRSSKQ-EDDnp)
Km [1]: 4.7 µM | kcat [1]: 17.9 s^–1 | kcat/Km [1]: 3808 s^–1 mM^–1

Abz-KXRSSKQ-EDDnp, X = Y: FRET peptide, S2 series, X = Y [Abz-KXRSSKQ-EDDnp, X = Y] (Abz-KYRSSKQ-EDDnp)
Km [1]: 5.6 µM | kcat [1]: 12.8 s^–1 | kcat/Km [1]: 2304 s^–1 mM^–1

Abz-KLRXSKQ-EDDnp, X = E: FRET peptide, S1’ series, X = E ([2Abz]KLRESKQ-EDDnp)
Km [1]: 6.6 µM | kcat [1]: 10.3 s^–1 | kcat/Km [1]: 1561 s^–1 mM^–1

Abz-KXRSSKQ-EDDnp, X = N: FRET peptide, S2 series, X = N (Abz-KNRSSKQ-EDDnp)
Km [1]: 10.1 µM | kcat [1]: 3.3 s^–1 | kcat/Km [1]: 327 s^–1 mM^–1

Abz-KLRXSKQ-EDDnp, X = N: FRET peptide, S1’ series, X = N ([2Abz]KLRNSKQ-EDDnp)
Km [1]: 8.6 µM | kcat [1]: 14.8 s^–1 | kcat/Km [1]: 1733 s^–1 mM^–1

Abz-KXRSSKQ-EDDnp, X = H: FRET peptide, S2 series, X = H (N-terminal Abz, C-terminal EDDnp; X = H)
Km [1]: 9.6 µM | kcat [1]: 4.7 s^–1 | kcat/Km [1]: 490 s^–1 mM^–1

Abz-KLRXSKQ-EDDnp, X = R: FRET peptide, S1’ series, X = R ([2Abz]KLRRSKQ-EDDnp)
Km [1]: 5.4 µM | kcat [1]: 8.2 s^–1 | kcat/Km [1]: 1519 s^–1 mM^–1

Abz-KLRSXKQ-EDDnp, X = G: FRET peptide, S2’ series, X = G ([2Abz]KLRSGKQ-EDDnp)
Km [1]: 4.5 µM | kcat [1]: 3.5 s^–1 | kcat/Km [1]: 778 s^–1 mM^–1

Abz-XLRSSKQ-EDDnp, X = H: FRET peptide, S3 series, X = H (N-terminal Abz, C-terminal EDDnp; X = H)
Km [1]: 4.2 µM | kcat [1]: 17.2 s^–1 | kcat/Km [1]: 4095 s^–1 mM^–1

Abz-KLRSSKQ-EDDnp [parent FRET peptide, cleaved at the R–S peptide bond by KLK2]
kcat/Km (20 mM Tris–HCl, pH 8.0, 1 M sodium citrate): 1738 mM^–1 s^–1 | Km [1]: 6.5 µM | kcat [1]: 11.3 s^–1 | kcat/Km [1]: 1738 s^–1 mM^–1

Abz-KLRXSKQ-EDDnp, X = F: FRET peptide, S1’ series, X = F ([2Abz]KLRFSKQ-EDDnp)
Km [1]: 1.2 µM | kcat [1]: 3.5 s^–1 | kcat/Km [1]: 2917 s^–1 mM^–1

Abz-KLRSXKQ-EDDnp, X = V: FRET peptide, S2’ series, X = V ([2Abz]KLRSVKQ-EDDnp)
Km [1]: 4.2 µM | kcat [1]: 15.3 s^–1 | kcat/Km [1]: 3643 s^–1 mM^–1

Abz-XLRSSKQ-EDDnp, X = E: FRET peptide, S3 series, X = E (Abz-ELRSSKQ-EDDnp)
Km [1]: 7.6 µM | kcat [1]: 7.4 s^–1 | kcat/Km [1]: 974 s^–1 mM^–1

Abz-KXRSSKQ-EDDnp, X = G: FRET peptide, S2 series, X = G ([2Abz]KGRSSKQ-EDDnp)
Km [1]: 12.4 µM | kcat [1]: 1.0 s^–1 | kcat/Km [1]: 81 s^–1 mM^–1

Abz-KLRSXKQ-EDDnp, X = L: FRET peptide, S2’ series, X = L ([2Abz]KLRSLKQ-EDDnp)
Km [1]: 2.8 µM | kcat [1]: 8.5 s^–1 | kcat/Km [1]: 3036 s^–1 mM^–1

Abz-KXRSSKQ-EDDnp, X = F: FRET peptide, S2 series, X = F ([2Abz]KFRSSKQ-EDDnp)
Km [1]: 1.6 µM | kcat [1]: 4.1 s^–1 | kcat/Km [1]: 2563 s^–1 mM^–1

Abz-XLRSSKQ-EDDnp, X = R: FRET peptide, S3 series, X = R (Abz-RLRSSKQ-EDDnp)
Km [1]: 3.9 µM | kcat [1]: 22.3 s^–1 | kcat/Km [1]: 5718 s^–1 mM^–1

Abz-KLRXSKQ-EDDnp, X = L: FRET peptide, S1’ series, X = L ([2Abz]KLRLSKQ-EDDnp)
Km [1]: 3.3 µM | kcat [1]: 6.7 s^–1 | kcat/Km [1]: 2030 s^–1 mM^–1

Abz-TLRVRAE-Q-EDDnp [FRET peptide derived from the IL-10R2 ectodomain, ^86TLRVRA^92E]
Km [2]: 1.34 µM | kcat [2]: 2.47 s^–1 | kcat/Km [2]: 1843 mM s–1

Abz-KLRSXKQ-EDDnp, X = H: FRET peptide, S2’ series, X = H (N-terminal Abz, C-terminal EDDnp; X = H)
Km [1]: 5.9 µM | kcat [1]: 4.4 s^–1

Abz-XLRSSKQ-EDDnp, X = Q: FRET peptide, S3 series, X = Q (Abz-QLRSSKQ-EDDnp)
Km [1]: 5.9 µM | kcat [1]: 25.7 s^–1 | kcat/Km [1]: 4356 s^–1 mM^–1

Abz-LPDRNK-Q-EDDnp [FRET peptide derived from the IL-10R2 ectodomain, ^195LPDRN^200K]
hydrolysis by KLK2 (in words): resistant to KLK2; also recorded: no hydrolysis

Abz-SYRIFQ-Q-EDDnp [FRET peptide derived from the IL-10R2 ectodomain, ^58SYRI^62F]
Km [2]: 0.95 µM | kcat [2]: 7.3 s^–1 | kcat/Km [2]: 7684 mM s–1

Abz-KXRSSKQ-EDDnp, X = V: FRET peptide, S2 series, X = V (Abz-KVRSSKQ-EDDnp)
Km [1]: 8.5 µM | kcat [1]: 9.9 s^–1 | kcat/Km [1]: 1165 s^–1 mM^–1

Abz-KXRSSKQ-EDDnp, X = K: FRET peptide, S2 series, X = K (Abz-KKRSSKQ-EDDnp)
Km [1]: 7.2 µM | kcat [1]: 3.0 s^–1 | kcat/Km [1]: 417 s^–1 mM^–1

Abz-KXRSSKQ-EDDnp, X = E: FRET peptide, S2 series, X = E [Abz-KXRSSKQ-EDDnp, X = E] ([2Abz]KERSSKQ-EDDnp)
Km [1]: 9.1 µM | kcat [1]: 1.0 s^–1 | kcat/Km [1]: 110 s^–1 mM^–1

Abz-KXRSSKQ-EDDnp, X = Q: FRET peptide, S2 series, X = Q [Abz-KXRSSKQ-EDDnp, X = Q] (Abz-KQRSSKQ-EDDnp)
Km [1]: 8.3 µM | kcat [1]: 6.4 s^–1 | kcat/Km [1]: 771 s^–1 mM^–1

Abz-KXRSSKQ-EDDnp, X = T: FRET peptide, S2 series, X = T (Abz-KTRSSKQ-EDDnp)
Km [1]: 10.5 µM | kcat [1]: 3.6 s^–1 | kcat/Km [1]: 343 s^–1 mM^–1

Abz-XLRSSKQ-EDDnp, X = N: FRET peptide, S3 series, X = N (Abz-NLRSSKQ-EDDnp)
Km [1]: 7.8 µM | kcat [1]: 26.7 s^–1 | kcat/Km [1]: 3423 s^–1 mM^–1

Abz-KLRSXKQ-EDDnp, X = R: FRET peptide, S2’ series, X = R ([2Abz]KLRSRKQ-EDDnp)
Km [1]: 3.6 µM | kcat [1]: 3.2 s^–1 | kcat/Km [1]: 888 s^–1 mM^–1

Abz-KLRXSKQ-EDDnp, X = Q: FRET peptide, S1’ series, X = Q ([2Abz]KLRQSKQ-EDDnp)
Km [1]: 6.1 µM | kcat [1]: 8.5 s^–1 | kcat/Km [1]: 1393 s^–1 mM^–1

Abz-LSKYGD-Q-EDDnp [FRET peptide derived from the IL-10R2 ectodomain, ^79LSKYG^84D]
hydrolysis by KLK2 (in words): resistant to hydrolysis; also recorded: no hydrolysis

Abz-KLRSXKQ-EDDnp, X = Q: FRET peptide, S2’ series, X = Q ([2Abz]KLRSQKQ-EDDnp)
Km [1]: 5.2 µM | kcat [1]: 6.5 s^–1 | kcat/Km [1]: 1250 s^–1 mM^–1

Abz-KLRSXKQ-EDDnp, X = F: FRET peptide, S2’ series, X = F ([2Abz]KLRSFKQ-EDDnp)
Km [1]: 2.4 µM | kcat [1]: 12.4 s^–1 | kcat/Km [1]: 5167 s^–1 mM^–1

Abz-XLRSSKQ-EDDnp, X = F: FRET peptide, S3 series, X = F [Abz-XLRSSKQ-EDDnp, X = F] (Abz-FLRSSKQ-EDDnp)
Km [1]: 6.6 µM | kcat [1]: 9.6 s^–1 | kcat/Km [1]: 1455 s^–1 mM^–1

Abz-KXRSSKQ-EDDnp, X = S: FRET peptide, S2 series, X = S (Abz-KSRSSKQ-EDDnp)
Km [1]: 9.1 µM | kcat [1]: 1.1 s^–1 | kcat/Km [1]: 121 s^–1 mM^–1

Abz-KLRSXKQ-EDDnp, X = I: FRET peptide, S2’ series, X = I ([2Abz]KLRSIKQ-EDDnp)
Km [1]: 2.8 µM | kcat [1]: 4.4 s^–1 | kcat/Km [1]: 1571 s^–1 mM^–1

Abz-KLRSXKQ-EDDnp, X = N: FRET peptide, S2’ series, X = N ([2Abz]KLRSNKQ-EDDnp)
Km [1]: 8.8 µM | kcat [1]: 4.9 s^–1 | kcat/Km [1]: 557 s^–1 mM^–1

Abz-KXRSSKQ-EDDnp, X = A: FRET peptide, S2 series, X = A [Abz-KXRSSKQ-EDDnp, X = A] ([2Abz]KARSSKQ-EDDnp)
Km [1]: 4.8 µM | kcat [1]: 2.2 s^–1 | kcat/Km [1]: 458 s^–1 mM^–1

Abz-KLRSXKQ-EDDnp, X = E: FRET peptide, S2’ series, X = E ([2Abz]KLRSEKQ-EDDnp)
Km [1]: 8 µM | kcat [1]: 7.1 s^–1 | kcat/Km [1]: 888 s^–1 mM^–1
